Source: paper PMC8531669, “Quantitative proteomics identifies the universally conserved ATPase Ola1p as a positive regulator of heat shock response in Saccharomyces cerevisiae” (The Journal of Biological Chemistry, 2021)

Molecular target: the molecule itself
Experiment: light scattering coupled to nanoDSF; Ola1p (4 μM in Fig. 3G) in 20 mM PIPES pH 7.0, 100 mM KCl, 1 mM TCEP; temperature ramp 0.5 °C/min from 20 °C to 70 °C; read between 38 and 42 °C

B1: Ola1p (natural protein, S. cerevisiae, UniProt P38219 1-394, looked up)
chain: MPPKKQVEEKKVLLGRPGNNLKAGIVGLANVGKSTFFQAITRCPLGNPANYPFATIDPEEARVIVPSPRFDKLCEIYKKTASEVPAHLTVYDIAGLTKGASAGEGLGNAFLSHIRSVDSIYQVVRCFDDAEIIHVEGDVDPVRDLEIINQELRLKDIEFAQKALEGAEKIAKRGGQSLEVKQKKEEMDLITKIIKLLESGQRVANHSWTSKEVEIINSMFLLTAKPCIYLINLSERDYIRKKNKHLLRIKEWVDKYSPGDLIIPFSVSLEERLSHMSPEDAEEELKKLQTISALPKIITTMRQKLDLISFFTCGPDEVREWTIRRGTKAPQAAGVIHNDLMNTFILAQVMKCEDVFEYKDDSAIKAAGKLMQKGKDYVVEDGDIIYFRAGAGKN
notes: Ola1p (Obg-like ATPase 1), S. cerevisiae, systematic name Ybr025c; The methods say that the MBP tag was cleaved with Precision protease; also called Ybr025c; MBP-Ola1p (before cleavage); source: insect cells (baculovirus expression system), purified (amylose resin, size-exclusion chromatography); not shown: MBP, N-terminal, cleaved
- binding result: binds
